In the RNAGym collection of RNA variant scans (doi:10.7554/elife.80360):

B1: Hammerhead Ribozyme (parent)
chain: ACCGGAUGUGCUUUCCGGUCUGAUGAGUCCGUGAGGACGAAACAG

Variants of: B1
Assay: self-cleavage, relative activity (ratio to wild type); higher = more cleavage; co-transcriptional
C11U C30A showed a self-cleavage of 0.765. Work on C20U A40G yielded a self-cleavage of 0.41. In the case of U7G U24A, the self-cleavage is reported as 1.4. In the case of C3G A40G, the self-cleavage is reported as 0.341. Work on C3A G39A yielded a self-cleavage of 0.277. With C15G G25U the self-cleavage was 0.315. With G22A G35C the self-cleavage was 0.294. G8A G17C gave a self-cleavage of 0.493. Work on G22A G36U yielded a self-cleavage of 0.344. In the case of G27A A42G, the self-cleavage is reported as 0.321. G10A U14C gave a self-cleavage of 0.97. In the case of U24C A37U, the self-cleavage is reported as 0.768. Variant G33C G35C has a self-cleavage of 0.858. For A1G A44G, the self-cleavage was 2.11. In the case of C3G G27C, the self-cleavage is reported as 0.284. In the case of G22U C29A, the self-cleavage is reported as 0.299. With A6U G31C the self-cleavage was 0.704. U28C A44G showed a self-cleavage of 1.11. For U24C C30G, the self-cleavage was 0.613. Work on G27A C43G yielded a self-cleavage of 0.415. For G4C A34U, the self-cleavage was 0.585. For C16U G33C, the self-cleavage was 1.17. In the case of U24C G25C, the self-cleavage is reported as 0.324. G5A G39A gave a self-cleavage of 0.353. A1G C43G showed a self-cleavage of 0.395. Work on C2A A6U yielded a self-cleavage of 0.331. Work on C15A U28G yielded a self-cleavage of 0.378. Work on U12G C16U yielded a self-cleavage of 0.968. Variant G4U U9A has a self-cleavage of 0.395. C16U G17C gave a self-cleavage of 0.551. C29U U32C gave a self-cleavage of 0.843. For G31C G36A, the self-cleavage was 0.527. U21G A40C showed a self-cleavage of 0.312. Variant G8U U12C has a self-cleavage of 1.35. With C20A C38U the self-cleavage was 0.385. For C2U C16U, the self-cleavage was 1.07. C2U G5C gave a self-cleavage of 0.364. C15A A34C gave a self-cleavage of 1.09. In the case of C11U G35A, the self-cleavage is reported as 0.64. C38A C43U showed a self-cleavage of 0.462. U12G A40U gave a self-cleavage of 0.376. Work on U7A U28G yielded a self-cleavage of 0.758. C2U G35U gave a self-cleavage of 0.757. For G8A G45C, the self-cleavage was 0.512. C3U A41C gave a self-cleavage of 0.404. Work on G25U U28G yielded a self-cleavage of 0.314. With U7A G10C the self-cleavage was 1.34. For C3U A26C, the self-cleavage was 0.394. G27U A40C gave a self-cleavage of 0.363. G17U A41G showed a self-cleavage of 0.375. With C16U A23C the self-cleavage was 0.474. With U21C U28A the self-cleavage was 0.573. G8U C38G showed a self-cleavage of 0.887. C15A A40C showed a self-cleavage of 0.361. Variant G35C A37G has a self-cleavage of 0.563. In the case of C3U G45U, the self-cleavage is reported as 0.599. For A23U U28C, the self-cleavage was 0.356. U9A G31C showed a self-cleavage of 1.18. Work on C2U C11A yielded a self-cleavage of 1.46. For U24G A44C, the self-cleavage was 0.617. A1C G4U gave a self-cleavage of 0.353. Work on U14G G39C yielded a self-cleavage of 0.41. G8A showed a self-cleavage of 1.05. In the case of C3U G18U, the self-cleavage is reported as 0.453. With G4C C43G the self-cleavage was 0.315. C29G G36A showed a self-cleavage of 0.66. G5C A42G showed a self-cleavage of 0.24. For G5C A42C, the self-cleavage was 0.356. With C3A U32G the self-cleavage was 0.355. Variant G33U A40G has a self-cleavage of 0.4. U7C G33A showed a self-cleavage of 1.15. Work on C30U G36U yielded a self-cleavage of 0.498. With C2G U19G the self-cleavage was 0.275. Variant G18A A42C has a self-cleavage of 0.376. C15U G22U gave a self-cleavage of 0.386. Variant C15A C43U has a self-cleavage of 0.415. In the case of G35U C38G, the self-cleavage is reported as 0.374. For G35U C38U, the self-cleavage was 0.775. Work on A34G G39U yielded a self-cleavage of 0.308. Work on U12C U19C yielded a self-cleavage of 0.577. Work on C15G G31C yielded a self-cleavage of 0.792. Work on U12G G17A yielded a self-cleavage of 0.738. C2A G4C showed a self-cleavage of 0.346. In the case of C20A G33C, the self-cleavage is reported as 0.555. For C15A U19G, the self-cleavage was 0.34. For A1G C16A, the self-cleavage was 1.15. Variant U9A U28C has a self-cleavage of 0.98. Variant U12C G22A has a self-cleavage of 0.36. Variant C38G A40G has a self-cleavage of 0.357. A37G C43U showed a self-cleavage of 0.33. Variant G33U G35U has a self-cleavage of 0.914. With G4U G27U the self-cleavage was 0.294. With U7C A44C the self-cleavage was 0.631. Work on C20U G25C yielded a self-cleavage of 0.273. In the case of A26U, the self-cleavage is reported as 0.848. G22U G25U gave a self-cleavage of 0.303. With G18C A42U the self-cleavage was 0.325. U14G U21A gave a self-cleavage of 0.741. C15A A42U showed a self-cleavage of 0.282. G27U A41G showed a self-cleavage of 0.312. With C2G C16A the self-cleavage was 0.335. Work on C2A A34C yielded a self-cleavage of 0.387. Work on G10C G33C yielded a self-cleavage of 0.937. In the case of G4A A6G, the self-cleavage is reported as 0.355. Variant U21A A42G has a self-cleavage of 0.307. C16G G25C gave a self-cleavage of 0.285. For A6C U19C, the self-cleavage was 0.397. G8C G39C gave a self-cleavage of 0.407. In the case of U14C G31U, the self-cleavage is reported as 1.05. G22C G25U showed a self-cleavage of 0.432. For G5C G18U, the self-cleavage was 0.307. Work on C3A U21A yielded a self-cleavage of 0.37. Variant G17U U24A has a self-cleavage of 0.781. A1C U21A showed a self-cleavage of 0.343. With C20U G33U the self-cleavage was 0.762. C11A A23U gave a self-cleavage of 0.401. In the case of U7A U32C, the self-cleavage is reported as 0.797. G4C G27U gave a self-cleavage of 0.326. Variant A26U G36A has a self-cleavage of 0.458. With U19A G39C the self-cleavage was 0.329. C16G G45C gave a self-cleavage of 0.397. Variant G5A A34C has a self-cleavage of 1.1. G17C A44C showed a self-cleavage of 0.418. For G25U A40G, the self-cleavage was 0.328. Work on G25U A40C yielded a self-cleavage of 0.272. In the case of G17C C43A, the self-cleavage is reported as 0.319. Variant G4C G36C has a self-cleavage of 0.247. Variant U14G C38A has a self-cleavage of 0.435. Variant G5A U14C has a self-cleavage of 1.49. In the case of U21G A42C, the self-cleavage is reported as 0.393. Variant G4A C43A has a self-cleavage of 0.313. C30G A42C gave a self-cleavage of 0.306. Variant G17A A26G has a self-cleavage of 0.297. Variant G39A A40G has a self-cleavage of 0.383. With C15U U28C the self-cleavage was 0.803. For G36A A40G, the self-cleavage was 0.289. A1G U12G gave a self-cleavage of 1.91. With U13G G39C the self-cleavage was 0.396. Work on A6U U14A yielded a self-cleavage of 1.06. C43U G45C gave a self-cleavage of 0.451. Work on A23C G45C yielded a self-cleavage of 0.376. Work on C20G A26C yielded a self-cleavage of 0.404. With G33U A42C the self-cleavage was 0.366. C3U A40G gave a self-cleavage of 0.34. Variant U9G C29G has a self-cleavage of 0.534. Work on U9A U13C yielded a self-cleavage of 1.37. In the case of A26U G33C, the self-cleavage is reported as 0.546. U21C U32G gave a self-cleavage of 0.947. Variant C3G A42U has a self-cleavage of 0.23. In the case of G35U A44U, the self-cleavage is reported as 0.338. For A1G G18C, the self-cleavage was 0.58. A23U G31C showed a self-cleavage of 0.393. Work on U19G C29G yielded a self-cleavage of 0.307. Work on A6U A26G yielded a self-cleavage of 0.291. Variant A6U A26C has a self-cleavage of 0.393. With G25A C38U the self-cleavage was 0.317. With A1C A41U the self-cleavage was 0.341. With U19G U28C the self-cleavage was 0.352. Work on U12A C16A yielded a self-cleavage of 1.03. Work on U32G C43A yielded a self-cleavage of 0.256. G5U G22C gave a self-cleavage of 0.251. With U13G C16A the self-cleavage was 0.765. A1C G45U showed a self-cleavage of 0.437. With G35U C43U the self-cleavage was 0.43. Work on A1U G4C yielded a self-cleavage of 0.353. With G33U A41C the self-cleavage was 0.375. In the case of G31C G35C, the self-cleavage is reported as 0.779.
